Data from patent publication US20150037340A1 (PEIRRE FABRE MEDICAMENT, published 2015).

Columns and labels:
[1] = target: T1, recombinant human Dtk-Fc (R and D Systems, cat No 859-DK) (human, UniProt Q06418 41-428); experiment: ELISA on coated rhDtk-Fc, detection with goat anti-mouse IgG-HRP
T1 construct: Bought protein; also called rhDtk-Fc; rhDtk; not shown: Fc portion
T1 sequence (looked up): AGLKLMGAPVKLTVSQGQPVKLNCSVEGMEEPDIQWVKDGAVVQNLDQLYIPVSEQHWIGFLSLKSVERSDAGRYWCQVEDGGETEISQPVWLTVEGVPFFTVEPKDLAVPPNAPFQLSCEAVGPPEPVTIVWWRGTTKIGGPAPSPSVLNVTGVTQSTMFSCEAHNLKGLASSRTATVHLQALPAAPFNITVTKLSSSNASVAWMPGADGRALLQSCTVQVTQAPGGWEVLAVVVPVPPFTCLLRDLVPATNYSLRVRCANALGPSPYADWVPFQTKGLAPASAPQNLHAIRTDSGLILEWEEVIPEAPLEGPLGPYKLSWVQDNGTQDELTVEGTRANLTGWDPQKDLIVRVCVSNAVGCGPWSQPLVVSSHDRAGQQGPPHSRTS
Procedure: Then ½ serial dilutions were done over 12 columns. Plates were washed and a goat anti-mouse (Jackson) specific IgG-HRP was added for 1 h at 37° C. Reaction development was performed using the TMB substrate solution. […] Coating controls were performed in presence of a goat anti-human IgG Fc polyclonal serum labelled with HRP (Jackson, ref 109-035-098) and/or in presence of a HRP-coupled anti-Histidine antibody (R and D Systems, ref: MAB050H). Results are represented in FIGS. 2A, 2B and 2C, respectively.

[2] = target: T2, recombinant mouse Axl-Fc (R and D systems, cat No 854-AX/CF) (mouse, UniProt Q00993 19-445); experiment: ELISA on coated rmAxl-Fc, detection with goat anti-mouse IgG-HRP
T2 construct: extracellular domain; Bought protein; also called rmAxl-Fc; murine Axl ECD domain; not shown: Fc portion (coating control with anti-human IgG Fc)
T2 sequence (looked up): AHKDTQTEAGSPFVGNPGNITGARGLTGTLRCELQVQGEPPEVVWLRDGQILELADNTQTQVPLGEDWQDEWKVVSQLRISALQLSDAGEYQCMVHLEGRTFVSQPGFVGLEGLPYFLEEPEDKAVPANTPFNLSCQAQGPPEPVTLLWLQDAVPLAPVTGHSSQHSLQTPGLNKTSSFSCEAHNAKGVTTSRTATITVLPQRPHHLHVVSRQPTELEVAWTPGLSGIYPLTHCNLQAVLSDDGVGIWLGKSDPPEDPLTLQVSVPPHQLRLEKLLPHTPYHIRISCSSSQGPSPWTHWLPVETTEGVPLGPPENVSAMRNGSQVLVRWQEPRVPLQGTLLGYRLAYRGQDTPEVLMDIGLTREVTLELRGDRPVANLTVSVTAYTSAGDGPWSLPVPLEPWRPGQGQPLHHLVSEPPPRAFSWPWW
Procedure: Briefly, the recombinant mouse Axl-Fc (R and D systems, cat No 854-AX/CF) proteins were coated overnight at 4° C. to Immulon II 96-well plates and, after a 1 h blocking step with a 0.5% gelatine solution, the 1613F12 purified antibody was added for one additional hour at 37° C. at starting concentration of 5 μg/m (3.33 10⁻⁸M). Then ½ serial dilutions were done over 12 columns. Plates were then washed and a goat anti-mouse (Jackson) specific IgG HRP was added for 1 h at 37° C. Reaction development was performed using the TMB substrate solution. […] Coating controls are performed in presence of a goat anti-human IgG Fc polyclonal serum coupled with HRP (Jackson, ref 109-035-098) and/or in presence of a HRP-coupled anti-Histidine antibody (R and D Systems, ref: MAB050H).

[3] = target: T3, human protein Axl (cellular form on the cell surface) (human, UniProt P30530 26-894); experiment: flow cytometry on SN12C cells, goat anti-mouse Alexa 488
T3 construct: also called Axl receptor; membrane Axl receptor
T3 sequence: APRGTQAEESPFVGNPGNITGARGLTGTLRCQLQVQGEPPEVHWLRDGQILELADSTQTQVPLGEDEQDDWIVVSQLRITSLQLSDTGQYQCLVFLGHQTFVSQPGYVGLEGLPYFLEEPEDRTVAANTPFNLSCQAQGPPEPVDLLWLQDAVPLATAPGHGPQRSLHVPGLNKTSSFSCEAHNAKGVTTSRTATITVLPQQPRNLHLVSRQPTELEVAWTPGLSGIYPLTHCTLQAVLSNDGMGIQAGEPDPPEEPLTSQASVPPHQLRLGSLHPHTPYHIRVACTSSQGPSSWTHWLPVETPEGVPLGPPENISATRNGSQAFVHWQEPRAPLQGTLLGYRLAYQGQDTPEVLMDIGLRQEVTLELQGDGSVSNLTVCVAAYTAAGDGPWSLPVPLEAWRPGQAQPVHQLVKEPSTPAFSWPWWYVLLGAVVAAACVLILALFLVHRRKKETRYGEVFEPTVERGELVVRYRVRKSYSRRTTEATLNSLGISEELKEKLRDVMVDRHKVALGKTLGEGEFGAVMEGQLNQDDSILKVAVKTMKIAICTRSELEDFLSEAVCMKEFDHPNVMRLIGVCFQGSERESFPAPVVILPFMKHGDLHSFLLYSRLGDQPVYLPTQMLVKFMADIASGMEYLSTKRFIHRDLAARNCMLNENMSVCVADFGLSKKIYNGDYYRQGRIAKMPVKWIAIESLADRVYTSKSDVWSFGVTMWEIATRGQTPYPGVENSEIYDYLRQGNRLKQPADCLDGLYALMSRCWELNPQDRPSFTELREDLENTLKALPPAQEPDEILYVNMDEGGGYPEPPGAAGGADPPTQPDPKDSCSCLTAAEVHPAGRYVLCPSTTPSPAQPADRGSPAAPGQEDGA
Procedure: For cell surface binding studies, two fold serial dilutions of a 10 μg/m (6.66 10⁻⁸ M) primary antibody solution (1613F12, MAB154 antibody or mIgG1 isotype control 9G4 Mab) are prepared and are applied on 2.10⁵ cells for 20 min at 4° C. After 3 washes in phosphate-buffered saline (PBS) supplemented with 1% BSA and 0.01% NaN₃, cells were incubated with secondary antibody Goat anti-mouse Alexa 488 (1/500° dilution) for 20 minutes at 4° C. After 3 additional washes in PBS supplemented with 1% BSA and 0.1% NaN₃, cells were analyzed by FACS (Facscalibur, Becton-Dickinson). At least 5000 cells were assessed to calculate the mean value of fluorescence intensity.

[4] = target: monkey Axl receptor expressed on the surface of COS7 cells (African green monkey); experiment: flow cytometry on COS7 cells, goat anti-mouse Alexa 488

B1: 1613F12 antibody (murine form) (antibody, V domains shown)
VH: EVHLQQSGAELVKPGASVKLSCTASGFNIRDTYIHWVKQRPEQGLEWIGRLDPANGHTKYGPNFQGRATMTSDTSSNTAYLQLSSLTSEDTAVYYCARGAYYYGSSGLFYFDYWGQGTTLSVSS
VL: DVQITQSPSYLATSPGETITINCRASKSISKYLAWYQEKPGKTNKLLIYSGSTLQSGVPSRFSGSGSGTDFTLTISSLEPEDFAMYFCQQHHEYPLTFGAGTELELK
notes: Whole murine monoclonal antibody purified from a hybridoma; a murine IgG1 (9G4) serves as its isotype control; also called m1613F12; monoclonal antibody 1613F12 derived from the hybridoma I-4505
binding result [1]: no binding (tested: log -7.5 M) | binding result [2]: no binding (tested: log -7.5 M) | EC50 (read off the curve) [3]: ~1 nM | EC50 (read off the curve) [4]: 1 nM
